Test [1] has as its target T1, human Notch3-Gal4 chimeric receptor on U2OS FlpIn TREx cells (human, UniProt Q9UM47 40-2321). The test is described as follows: cell-based or functional assay.
Test [2] concerns the target T2, human full-length Notch1 with C-terminal FLAG tag, stably expressed on 293 FlpIn (TREx) cells (human, UniProt P46531 19-2555).
T2 construct: tetracycline/doxycycline-induced expression from pcDNA5/FRT/TO-HN1+FLAG; also called hN1; 293_N1
The test is described as follows: FACS, hN1 293 cells, MFI grade (++++ >1000). The protocol:
(§1) Notch 293 FlpIn (TREx) cells were treated with dox (2 ug/ml) for two days to induce Notch expression before collecting them for FACS surface expression analysis. The cells were harvested from tissue culture flasks using Trypsin for 15 min, centrifuged at 1200 rpm for 10 minutes and resuspended in 2 ml PBS with 2% fetal bovine serum (2% FBS/PBS). The cells were counted, adjusted to 10⁷ cells/ml and 0.1 ml of cells was incubated with 1 ug of each Mab for 40 minutes at 4° C. The cells were washed, resuspended in 0.1 ml 2% FBS/PBS and incubated with 1 ug R-PE-conjugated goat anti-human Ig (Jackson ImmunoResearch) for 30 minutes at 4° C. Cells were washed, resuspended in 0.3 ml PBS with 10% formaldehyde and analyzed on a FACSCalibur (Becton Dickinson, Mt View, Calif.).
Clones were analyzed as described in Section I-Example 12. We analyzed the corresponding Mabs for their binding to 293-N1, -N3 and 293 parental cells by flow cytometry.
Background: Flow cytometry measures light scatter and fluorescence of single cells or particles in a stream.

Test [3] has as its target T1, human Notch3-Gal4 chimeric receptor on …. The test is described as follows: cell-based or functional assay. The source holds these as a separate data set.
The target of test [4] is T3, Notch1 extracellular fragment (amino acid 19-526) Fc fusion protein, R&D Systems 3647-TK (human, UniProt P46531 19-526).
T3 construct: bought protein; also called Notch1/Fc; Notch1-ECD Fc fusion protein; not shown: Fc of the bought fusion protein
Briefly: titration ELISA, antigen coated, purified IgG1. On the procedure:
Plates were blocked with 300 ul of milk blocker per well and incubated for 2 hour at RT. […] After washing plates with PBS or TBS buffer, anti-human lambda light chain antibody with HRP was used for detection antibody and absorbance at 450 nm was read with a plate reader.
For orientation: An ELISA detects its analyte on a solid surface through an enzyme-linked reagent.

Test [5] deals with T2, human full-length Notch1 with …. Briefly: FACS, hN1 293 cells, MFI grade (+ 11-100). On the procedure:
as §1

Test [6] has as its target T3, Notch1 extracellular fragment (amino …). Briefly: BIAcore SPR, Notch1/Fc on CM5, Mab analyte, 1:1 binding. On the procedure: All experiments were performed at 25° C. at a flow rate of 40 μl/min. […] FC1 was used as the reference cell. Specific signals were the results of differences of signals obtained on FC2 versus FC1. […] The dissociation phase of the analyte was monitored over a period of time ranging 10-30 minutes. Running buffer was also injected under the same conditions as a reference.
Equilibrium dissociation constant (KD) was calculated by the ratio between dissociation (koff) and association (kon) rate constants.

Test [7] concerns the target T2, human full-length Notch1 with …. The test is described as follows: FACS, hN1 293 cells, MFI grade (++ 101-500). On the procedure:
as §1

Like-named read-outs stand apart in the source and are kept apart here.

B1: FL-SKNAS-D2-268 (antibody, human IgG1, lambda, V domains shown)
VH: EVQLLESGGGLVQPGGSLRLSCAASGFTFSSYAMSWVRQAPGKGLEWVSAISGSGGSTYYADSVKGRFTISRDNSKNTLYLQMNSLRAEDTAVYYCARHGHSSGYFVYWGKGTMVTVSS
VL: QAVLTQPSSVSGAPGQRVTISCTGTSSNIGAPYDVNWYQQLPGIAPKLLISGNTNRPSGVPDRFSGSKSGASASLAITGLQADDEADYYCQSYDHSLSGWVFGGGTKVTVLG
notes: full IgG1/lambda chains; name tied through the DNA section of Appendix IX (same order); also called B-000000395-000V
B1: the “hN3, inhibition of Luc activity at [166 nM] Mab” value (“hN3, inhibition of Luc activity” below) in test [1] was under 5%. Further, in test [2], the MFI was over 1000 mfi.

B2: WC-159 (antibody, human IgG1, lambda, V domains shown)
VH: QLQLVETGGGLVKPGESLTLSCAASGFTFSSYSMNWVRQAPGKGLEWVSSISSSGSSIYYADSLKGRFTISRDNAKNSLYLQMNSLRAEDTAVYYCTRGTQWLAGVGDYWGKGTLVTVSS
VL: QSALTQPPSASASPGQSVTISCTGTSSDVGAYDSVSWYQQHPGKAPKLIIYDVNNRPSGVSNRFSGSESGNTASLTISGLQAEDEANYYCSSYRNTKTVVFGGGTKLTVLQ
notes: also called N1wc159
On to B2, for which, in test [3], the “hN3, inhibition of Luc activity” value is under 10%. Moreover, the 50% effective concentration (EC50) (in general, the concentration at which the effect is half-maximal) in test [4] turned out to be 0.12 nM.

B3: A2780-C2-16 (antibody, human IgG1, lambda, V domains shown)
VH: EVQLVQSGAEVKKPGSSVKVSCKASGGTFSSFAFSWVRQAPGQGLDWMGRIIPILGRTNYAQKFQGRVTFTADTSTSTVYMELSSLSSEDTAVYYCARDREYSLSLGGSDYWGQGTLVTVSS
VL: QAVLTQPSSVSGAPGQRVTISCIGSSSNIGAGYDVHWYRQPPGTAPQLLIYANTNRPSGVPDRFSGSRSGTSASLAITGIQAEDEADYYCQSYDSSLSGRVFGGGTKVTVLG
notes: full IgG1/lambda chains; name tied through the DNA section of Appendix IX (same order); also called B-000000397-000M
Turning to B3, the “hN3, inhibition of Luc activity” value in test [1] was under 15%. The MFI in test [2] is over 1000 mfi.

B4: WC-168 (antibody, human IgG1, lambda, V domains shown)
VH: EVQLVQSGAEVKKPGASVKVSCKASGYNFTGYYMHWVRQAPGQGLEWMGWINPNSGGTNYAQKFQGRVTMTRDTSISTAYMELSRLRSDDTAVYYCATDSFDYWGRGTLVTVSS
VL: not shown
notes: also called N1wc168; hN1wc-168
On to B4, for which the “hN3, inhibition of Luc activity” value in test [3] is under 10%. Further, the MFI in test [5] lay in the range of 11 to 100 mfi. Besides, in test [6], the affinity, expressed as Kd, was 4.7 nM; the dissociation rate constant (koff) (as a rule, the first-order rate constant of dissociation) worked out at 0.00228 s⁻¹; the kon (as a rule, a measure of how fast the partners come together) turned out to be 486000 M⁻¹ s⁻¹.

B5: WC-155 (antibody, human IgG1, lambda, V domains shown)
VH: EVQLVQSGAEVKKPGASVKVSCKASGYNFTGYYMHWVRQAPGQGLEWMGWINPNSGGTNYAQKFQGRVTMTRDTSISTAYMELSRLRSDDTAVYYCATDSFDYWGRGTLVTVSS
VL: QSVLTQPPSVSGAPGQRVTISCTGSSSNIGAGYDVLWYRQLPGTAPKLLIYGNTHRPSGVPDRFSGSNSGTSASLAITGLQAEDEADYYCQSYDSSLSGSVFGGGTKLTVLQ
notes: also called N1wc155; hN1wc-155
Consider B5, for which, in test [3], the “hN3, inhibition of Luc activity” value was under 10%. The MFI in test [7] lay within 101 to 500 mfi. Also, in test [6], the affinity, expressed as Kd, was 1.74 nM; the dissociation rate constant (koff) turned out to be 0.00029 s⁻¹; the kon is 166000 M⁻¹ s⁻¹.

B6: WC-97 (antibody, human IgG1, lambda, V domains shown)
VH: EVQLVQSGAEVKKPGASVKVSCKASGYNFTGYYMHWVRQAPGQGLEWMGWINPNSGGTNYAQKFQGRVAMTRDTSISTAYMELSRLRSDDSAVYYCATDSFDYWGRGTTVTVSS
VL: QSVLTQPPSVSGAPGQRVTISCTGTSSNIGAGYDVQWYQQLPGTAPKVLMYGNSNRPSGVPDRFSGSKSGTSASLAITGLQAEDEADYYCQSYDSSLSGSLFGTGTKVTVLQ
notes: also called N1wc97; hN1wc-97
For the molecule B6, the “hN3, inhibition of Luc activity” value in test [3] was under 10%. The same molecule registered an MFI in test [5] of 11 to 100 mfi. Moreover, in test [6], the Kd (usually the concentration at which binding is half-saturated) was determined as 7.87 nM, the koff came to 0.000438 s⁻¹ and the association rate constant (kon) was 55600 M⁻¹ s⁻¹.

B7: S3-013 (antibody, human IgG1, lambda, V domains shown)
VH: EVQLVQSGAEVKKPGASVKVSCKASGYNFTGYYMHWVRQAPGQGLEWMGWINPNSGGTNYAQKFQGRVTMTRDTSISTAYMELSRLRSDDTAVYYCATDSFDYWGRGTLVTVSS
VL: QPVLTQPPSASGTPGQRVTISCSGSSSNIGSNYVYWYQKFPGTAPKLLIYTNNQRPSGVPDRFSGSKSGTSASLAISGLRSEDEADYYCAAWDDSLSGVVFGGGTKVTVLQ
notes: also called hN1S3-013; HN1S3-13
B7: in test [3], the “hN3, inhibition of Luc activity” value is under 10%. In addition, the MFI in test [5] fell in the range of 11 to 100 mfi. In test [6], this molecule returned a Kd of 4.92 nM, an off-rate constant (koff) of 0.00294 s⁻¹ and a kon of 597000 M⁻¹ s⁻¹.

B8: S3-056 (antibody, human IgG1, lambda, V domains shown)
VH: QVQLQQSGAEVKKPGASVKVSCKASGYNFTGYYMHWVRQAPGQGLEWMGWINPNSGGTNYAQKFQGRVTMTRDTSISTAYMELSRLRSDDTAVYYCATDSFDYWGRGTLVTVSS
VL: not shown
notes: also called hN1S3-056; HN1S3-56
In the case of B8, in test [3], the “hN3, inhibition of Luc activity” value was under 10%. For the same molecule, in test [5], the MFI was 11 to 100 mfi. For the same molecule, in test [6], the Kd was found to be 5.65 nM, the koff came to 0.00292 s⁻¹ and the kon is 517000 M⁻¹ s⁻¹.

B9: FL-SKNAS-C2-514 (antibody, human IgG1, lambda, V domains shown)
VH: EVQLVQSGAEVKEPGESLRISCKASGYDFSNYWIAWVRQMPGKGLEWMGIIYPGDSDTRYSPSFQGQVTISVDRSISTAYLQWSSLKASDTALYYCSRPTYWSTTWGREFDYWGQGTLVTVSS
VL: SYELTQPPSVSVSPGQTATITCSGDALPKKYAYWYQQKSGQAPVLVVYEDSKRPSGIPERFSGSSSGTMATLTISGAQVEDEADYYCYSTDSSGNHWVFGGGTKLTVLG
notes: full IgG1/lambda chains; name tied through the DNA section of Appendix IX (same order); also called B-000000402-000X
With B9, in test [1], the “hN3, inhibition of Luc activity” value was under 5%. This molecule came in with an MFI in test [2] of over 1000 mfi.

B10: FL-JEG3-C2-11 (antibody, human IgG1, lambda, V domains shown)
VH: QLQLVETGGGLVQPVGSLRLSCAASGFSFDNYAMSWVRQAPGKGLEWVSSISGSGGQIFYADSVKGRFTISRDNAKNTLVLQMNSLRVDDTAVYYCARDFYRTPGYNTNWGYWGRGTMVTVSS
VL: SYVLTQPPSVSVSPGETASISCSGDGLGNKYVAWYQQKPGQSPVLVIQQDSKRPSGIPERFSGSNSGDTATLTISGTQSLDEGDYYCQAWDRPAVIFGGGTKLTVLG
notes: full IgG1/lambda chains; name tied through the DNA section of Appendix IX (same order); also called JEG-C2-11; B-000000399-000E
For B10, in test [1], the “hN3, inhibition of Luc activity” value was under 5%. Also, in test [2], the MFI is over 1000 mfi.

The record behind these values is patent US20110286916A1 (published 2011).
